Patent US20240052042A1 (Novartis, published 2024)

Key:
[1] = biological target: T1, human NPR1 on CHO-K1 cells (human, UniProt P16066 33-1061); test: cell-based or functional assay
T1 sequence: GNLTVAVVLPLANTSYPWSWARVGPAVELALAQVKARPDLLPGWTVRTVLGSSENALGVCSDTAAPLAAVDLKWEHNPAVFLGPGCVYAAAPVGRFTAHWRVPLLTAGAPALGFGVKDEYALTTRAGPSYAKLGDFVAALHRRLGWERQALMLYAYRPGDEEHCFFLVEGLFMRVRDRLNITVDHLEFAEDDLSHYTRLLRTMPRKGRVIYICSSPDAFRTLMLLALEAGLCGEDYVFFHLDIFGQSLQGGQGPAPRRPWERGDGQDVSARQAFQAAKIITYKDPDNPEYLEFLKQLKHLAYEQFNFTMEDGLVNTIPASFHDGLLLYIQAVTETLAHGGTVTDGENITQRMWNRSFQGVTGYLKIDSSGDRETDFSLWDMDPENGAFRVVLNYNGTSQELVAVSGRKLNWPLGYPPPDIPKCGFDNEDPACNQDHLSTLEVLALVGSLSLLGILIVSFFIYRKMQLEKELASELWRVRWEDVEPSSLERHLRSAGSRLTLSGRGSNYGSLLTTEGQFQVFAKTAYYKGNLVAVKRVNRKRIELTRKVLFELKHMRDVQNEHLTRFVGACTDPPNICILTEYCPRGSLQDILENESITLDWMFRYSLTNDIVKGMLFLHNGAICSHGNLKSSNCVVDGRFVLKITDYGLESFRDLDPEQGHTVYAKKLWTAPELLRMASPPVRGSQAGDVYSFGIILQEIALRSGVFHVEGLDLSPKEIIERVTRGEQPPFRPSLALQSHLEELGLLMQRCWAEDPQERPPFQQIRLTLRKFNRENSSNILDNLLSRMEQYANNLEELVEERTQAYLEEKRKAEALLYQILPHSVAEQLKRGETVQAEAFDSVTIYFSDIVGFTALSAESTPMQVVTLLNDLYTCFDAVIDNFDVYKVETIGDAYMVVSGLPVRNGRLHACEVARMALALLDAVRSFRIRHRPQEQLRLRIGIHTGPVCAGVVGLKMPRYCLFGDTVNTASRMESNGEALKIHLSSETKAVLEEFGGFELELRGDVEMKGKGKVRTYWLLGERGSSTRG

[2] = biological target: constitutively active human NPR1 mutant (W74R) (human) (UniProt P16066); test: ELISA, 1 µM IgG
[3] = biological target: W74R hNPR1 mutant in the presence of ANP (human) (UniProt P01160); test: ELISA, 1 µM IgG
[4] = biological target: constitutively active human NPR1 mutant (W74R) (human) (UniProt P16066); test: ELISA, IgG titrated on coated antigen, fluorescence [Cont.]
rNPR1-ANP complex = biological target: T2, rNPR1-ANP complex (rat, UniProt P01160 124-151 (human entry), limits assumed); test: ELISA, 1 µM IgG; parameters: unit not given here
T2 construct: rNPR1 antigen in the presence of ANP; also called rNPR1 + 100 nM ANP
T2 sequence: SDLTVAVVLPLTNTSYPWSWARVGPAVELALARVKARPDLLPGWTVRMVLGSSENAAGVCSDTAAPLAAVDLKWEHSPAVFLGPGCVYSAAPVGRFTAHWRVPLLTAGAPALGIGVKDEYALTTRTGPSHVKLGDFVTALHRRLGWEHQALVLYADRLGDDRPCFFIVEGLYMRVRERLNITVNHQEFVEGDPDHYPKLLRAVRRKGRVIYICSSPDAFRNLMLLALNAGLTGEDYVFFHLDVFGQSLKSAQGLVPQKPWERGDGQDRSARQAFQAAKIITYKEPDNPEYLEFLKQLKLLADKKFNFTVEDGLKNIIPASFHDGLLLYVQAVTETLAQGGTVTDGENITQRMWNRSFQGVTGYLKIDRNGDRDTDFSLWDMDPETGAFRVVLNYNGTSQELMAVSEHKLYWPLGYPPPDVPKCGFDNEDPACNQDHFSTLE
T2 sequence (peptide): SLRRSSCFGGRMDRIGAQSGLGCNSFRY

[5] = biological target: T3, human Natriuretic Peptide Receptor 1 (hNPR1) (human, UniProt P16066 33-473, limits assumed); test: ELISA, 1 µM IgG; parameters: unit not given here
T3 construct: pannings used NPR1-hFc; also called NPR1-hFc
T3 sequence: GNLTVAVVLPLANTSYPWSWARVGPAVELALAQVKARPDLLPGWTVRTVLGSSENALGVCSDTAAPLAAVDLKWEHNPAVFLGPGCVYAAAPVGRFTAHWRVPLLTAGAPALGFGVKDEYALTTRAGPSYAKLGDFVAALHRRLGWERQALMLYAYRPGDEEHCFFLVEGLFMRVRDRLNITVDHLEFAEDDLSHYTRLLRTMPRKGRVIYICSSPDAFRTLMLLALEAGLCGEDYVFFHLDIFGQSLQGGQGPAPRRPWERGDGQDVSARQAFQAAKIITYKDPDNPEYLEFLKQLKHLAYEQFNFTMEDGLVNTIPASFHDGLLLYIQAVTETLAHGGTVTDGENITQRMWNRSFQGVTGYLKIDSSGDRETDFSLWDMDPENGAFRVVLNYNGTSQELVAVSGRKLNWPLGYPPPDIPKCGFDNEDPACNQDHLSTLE

[6] = biological target: T4, human NPR3 in the presence of ANP (human, UniProt P17342 27-481; P01160 124-151, limits assumed); test: ELISA, 1 µM IgG; parameters: unit not given here
T4 construct: also called hNPR3 + 100 nM ANP
T4 sequence (looked up): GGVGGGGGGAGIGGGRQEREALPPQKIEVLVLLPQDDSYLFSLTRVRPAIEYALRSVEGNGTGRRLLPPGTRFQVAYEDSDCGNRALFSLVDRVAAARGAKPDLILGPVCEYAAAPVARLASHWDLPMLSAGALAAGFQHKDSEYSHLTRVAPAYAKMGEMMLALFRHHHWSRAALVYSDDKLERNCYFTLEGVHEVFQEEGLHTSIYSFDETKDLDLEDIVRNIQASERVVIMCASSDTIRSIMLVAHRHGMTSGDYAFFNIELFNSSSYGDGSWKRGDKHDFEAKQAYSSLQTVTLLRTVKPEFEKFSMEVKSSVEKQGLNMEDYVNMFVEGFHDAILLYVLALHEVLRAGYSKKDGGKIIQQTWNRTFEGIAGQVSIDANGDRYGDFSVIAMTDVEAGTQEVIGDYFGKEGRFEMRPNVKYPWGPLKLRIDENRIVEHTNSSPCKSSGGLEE
T4 sequence (peptide, looked up): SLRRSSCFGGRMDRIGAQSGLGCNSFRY

[7] = biological target: T5, human NPR3 (counter target) (human, UniProt P17342 27-481, limits assumed); test: ELISA, 1 µM IgG; parameters: unit not given here
T5 construct: Pannings used hNPR3-hFc; also called hNPR3; hNPR3-hFc
T5 sequence (looked up): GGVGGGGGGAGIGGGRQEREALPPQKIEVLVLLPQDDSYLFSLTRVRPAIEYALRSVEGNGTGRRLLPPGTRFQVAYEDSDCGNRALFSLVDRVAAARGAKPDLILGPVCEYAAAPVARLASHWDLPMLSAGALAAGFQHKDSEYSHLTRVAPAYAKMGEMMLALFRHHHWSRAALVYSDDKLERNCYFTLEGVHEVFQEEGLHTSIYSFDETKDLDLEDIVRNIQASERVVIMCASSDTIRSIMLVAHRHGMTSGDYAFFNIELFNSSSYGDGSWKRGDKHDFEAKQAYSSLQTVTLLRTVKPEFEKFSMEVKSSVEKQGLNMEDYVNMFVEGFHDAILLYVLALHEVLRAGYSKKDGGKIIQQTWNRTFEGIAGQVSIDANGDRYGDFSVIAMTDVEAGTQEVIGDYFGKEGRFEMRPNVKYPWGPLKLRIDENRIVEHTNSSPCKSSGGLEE

rat NPR1 (rNPR1) = biological target: T6, rat NPR1 (rNPR1) (rat, UniProt P18910 29-469, limits assumed); test: ELISA, 1 µM IgG; parameters: unit not given here
T6 construct: Soluble antigen
T6 sequence: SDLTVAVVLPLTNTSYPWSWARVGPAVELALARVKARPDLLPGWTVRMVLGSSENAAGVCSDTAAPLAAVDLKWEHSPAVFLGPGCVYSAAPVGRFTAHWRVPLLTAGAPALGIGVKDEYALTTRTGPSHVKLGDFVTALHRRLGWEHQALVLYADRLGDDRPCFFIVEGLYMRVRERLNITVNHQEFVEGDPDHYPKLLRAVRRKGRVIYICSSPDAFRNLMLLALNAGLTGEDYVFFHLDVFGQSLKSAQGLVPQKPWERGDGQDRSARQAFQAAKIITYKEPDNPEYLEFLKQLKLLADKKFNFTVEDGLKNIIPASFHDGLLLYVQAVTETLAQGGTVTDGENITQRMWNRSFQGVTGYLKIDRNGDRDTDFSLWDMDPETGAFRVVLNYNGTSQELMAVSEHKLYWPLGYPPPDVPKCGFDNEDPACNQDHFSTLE

hNPR1-ANP complex = biological target: T7, hNPR1-ANP complex (human, UniProt P01160 124-151, limits assumed); test: ELISA, 1 µM IgG; parameters: unit not given here
T7 construct: hNPR1 antigen in the presence of ANP; also called hNPR1 + 100 nM ANP
T7 sequence: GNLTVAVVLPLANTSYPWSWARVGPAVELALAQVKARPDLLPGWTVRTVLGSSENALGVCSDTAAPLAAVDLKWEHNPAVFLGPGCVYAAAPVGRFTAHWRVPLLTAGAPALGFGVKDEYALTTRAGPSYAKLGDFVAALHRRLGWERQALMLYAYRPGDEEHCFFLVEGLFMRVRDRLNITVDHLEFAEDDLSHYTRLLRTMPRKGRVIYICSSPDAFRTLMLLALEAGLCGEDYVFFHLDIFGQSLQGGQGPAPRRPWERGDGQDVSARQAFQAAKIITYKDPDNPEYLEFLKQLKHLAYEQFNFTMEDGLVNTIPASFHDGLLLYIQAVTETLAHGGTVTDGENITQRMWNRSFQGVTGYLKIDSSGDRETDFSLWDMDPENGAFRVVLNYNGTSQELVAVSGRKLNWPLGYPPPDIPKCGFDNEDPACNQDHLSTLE
T7 sequence (peptide): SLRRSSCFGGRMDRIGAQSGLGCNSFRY

[8] = biological target: T8, human NPR1 on CHO-K1 cells in the presence of ANP (human, UniProt P01160 124-151); test: flow cytometry, hNPR1 CHO-K1 cells, IgG
T8 construct: also called hNPR1 CHO K1 + 100 nM ANP
T8 sequence: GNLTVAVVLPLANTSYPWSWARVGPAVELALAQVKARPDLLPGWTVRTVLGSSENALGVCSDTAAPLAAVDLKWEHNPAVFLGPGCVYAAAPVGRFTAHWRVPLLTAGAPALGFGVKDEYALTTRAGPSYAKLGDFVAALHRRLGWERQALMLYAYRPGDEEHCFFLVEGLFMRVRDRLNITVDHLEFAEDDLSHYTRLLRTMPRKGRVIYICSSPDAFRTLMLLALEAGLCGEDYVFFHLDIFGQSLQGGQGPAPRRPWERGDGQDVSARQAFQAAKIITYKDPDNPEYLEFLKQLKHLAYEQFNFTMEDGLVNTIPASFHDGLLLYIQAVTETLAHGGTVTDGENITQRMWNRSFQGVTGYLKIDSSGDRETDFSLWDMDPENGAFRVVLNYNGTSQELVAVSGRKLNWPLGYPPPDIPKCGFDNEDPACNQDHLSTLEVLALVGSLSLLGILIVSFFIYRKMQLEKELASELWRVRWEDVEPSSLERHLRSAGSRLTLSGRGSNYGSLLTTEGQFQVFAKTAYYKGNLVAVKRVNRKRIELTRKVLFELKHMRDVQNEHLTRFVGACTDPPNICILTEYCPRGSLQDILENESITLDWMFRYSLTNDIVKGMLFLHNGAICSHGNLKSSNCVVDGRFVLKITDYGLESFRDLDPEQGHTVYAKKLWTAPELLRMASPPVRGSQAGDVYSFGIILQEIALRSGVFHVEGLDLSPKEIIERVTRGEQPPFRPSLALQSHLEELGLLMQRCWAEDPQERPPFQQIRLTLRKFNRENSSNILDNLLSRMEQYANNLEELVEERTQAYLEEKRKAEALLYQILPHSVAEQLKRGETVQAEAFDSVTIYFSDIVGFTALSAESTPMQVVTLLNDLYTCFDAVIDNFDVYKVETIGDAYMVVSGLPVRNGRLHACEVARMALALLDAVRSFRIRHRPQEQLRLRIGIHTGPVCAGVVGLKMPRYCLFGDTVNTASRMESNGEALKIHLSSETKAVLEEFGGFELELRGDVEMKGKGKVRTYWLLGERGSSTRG
T8 sequence (peptide): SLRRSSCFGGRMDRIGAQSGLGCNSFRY

[9] = biological target: T1, human NPR1 on CHO-K1 cells; test: flow cytometry, hNPR1 CHO-K1 cells, IgG

- cGMP conc [nM] at 1 µM IgG, +0.075 nM ANP [1]: 15 nM
- cGMP conc [nM] at 1 µM IgG, without ANP [1]: 13 nM
- ELISA binding at 1 µM IgG [2]: 69
- ELISA binding at 1 µM IgG [3]: 23
- EC50 (read off the curve) [4]: 1 nM
- ELISA binding at 1 µM IgG (rNPR1-ANP complex): 16
- ELISA binding at 1 µM IgG [5]: 81
- ELISA binding at 1 µM IgG [6]: 4
- ELISA binding at 1 µM IgG [7]: 7
- ELISA binding at 1 µM IgG (rat NPR1 (rNPR1)): 11
- ELISA binding at 1 µM IgG (hNPR1-ANP complex): 32
- flow cytometry S/BG at 1 µM IgG [8]: 5 S/BG
- flow cytometry S/BG at 1 µM IgG [9]: 15 S/BG
B1: YY05 (IgG format) (antibody, V domains shown)
VH: EVQLVQSGAEVKKPGESLKISCKGSGYSFTSYWISWVRQMPGKGLEWMGIIYPGTSYTRYSPSFQGQVTISADKSISTAYLQWSSLKASDTAMYYCARGAVAGQLGFDHWGQGTLVTVSS
VL: QSVLTQPPSVSGAPGQRVTISCTGSSSNIGAGYDVHWYQQLPGTAPKLLIYGNSNRPSGVPDRFSGSKSGTSASLAITGLQAEDEADYYCQSYYTSSHGPVFGGGTKLTVLG
notes: also called YY05_LALA
